From article PMC12375889 (Febs Letters, 2025)

Experiments:
[1] = biological target: the molecule itself; assay: native MS
[2] = biological target: the molecule itself; assay: SEC

B1: MvoDUF2193 (natural protein, Methanococcus voltae strain A3, UniProt D7DSA4 1-499, looked up)
chain: MKELYEKMINEAMAAQWADVEVIKAKRGTKYKLTDGKPYVDAVQKMEAIGDQCSEVFDLHKNSVKIHYDTLCDLTDTVRPEDDPFVEHYQTPAILEILYNEDPKFREAVEKFIDSVEKNSALIGKEVVRRYGGFYGPTCVVDFALIPGSTSNIVNQILRKTDISEHYKQAILASKSWGMNTSYGIGDKFAHAVEDGKTLEEAIDEEIKTIKMIYDTPIQAQAKLMEEAGHTSFDVLKYMQDYKKKMESTVKKAIDADVNYANIVTVPAYCVGDISHHIAQSTYNMCKDDVIMAIIEATSKVMDNTLRNNIDKYKSEFDVLSLATGSTAAAVEYILELDGFNAPTVVQLLTRRFHNYVQLYPKRGAAAELHNCDFMDMIYRGWKTLDKARRMKNGSGTKLMPMVNDMPVDLDPIAENEVIMNPQRYAYPACAITVRFSSLMRLSDYPCLLTSEPVTATMMTNAIALHKNNPGAPARVCKKCASSCLVDFRHEYCQWRESV
stoichiometry N [1]: 2
stoichiometry N [2]: 4
